Reference: paper PMC10454854, “Structural and Biochemical Analysis of the Recombination Mediator Protein RecR from Campylobacter jejuni” (International Journal of Molecular Sciences, 2023)

Tests used:
[1] = molecular target: the molecule itself; test: SEC; cjRecR alone (~300 μg in 300 μL), Superdex 200 10/300, 20 mM Tris pH 8.0, 150 mM NaCl, 5 mM βME; size against gel-filtration standards
[2] = molecular target: the molecule itself; test: crystal structure; crystal of cjRecR (residues 1-190), four subunits in the asymmetric unit; sitting drop, 18 °C, 17% ethanol, 0.1 M Hepes pH 7.5, 0.25 M magnesium chloride; 2.6 Å
cjRecR = molecular target: T1, cjRecR (Campylobacter jejuni, UniProt Q9PN35 1-190); test: fluorescence polarization; Fluorescence polarization: 0.8 nM fluorescein 40-mer ssDNA, protein up to 100 uM, one-site fit; buffer, salt, pH and temperature not stated; conditions: protein: recombinant; tags: His6 tag removed with thrombin; chain copies: 4; single strand
T1 sequence: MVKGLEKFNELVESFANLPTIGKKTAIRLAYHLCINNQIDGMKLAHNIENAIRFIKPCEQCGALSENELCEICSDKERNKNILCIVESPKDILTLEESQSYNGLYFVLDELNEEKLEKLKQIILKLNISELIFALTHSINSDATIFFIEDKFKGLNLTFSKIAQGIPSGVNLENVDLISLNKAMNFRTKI

B1: Campylobacter jejuni RecR (natural protein, UniProt Q9PN35 1-190, looked up)
chain: MVKGLEKFNELVESFANLPTIGKKTAIRLAYHLCINNQIDGMKLAHNIENAIRFIKPCEQCGALSENELCEICSDKERNKNILCIVESPKDILTLEESQSYNGLYFVLDELNEEKLEKLKQIILKLNISELIFALTHSINSDATIFFIEDKFKGLNLTFSKIAQGIPSGVNLENVDLISLNKAMNFRTKI
notes: RecR of Campylobacter jejuni subsp. jejuni (ATCC 33291), residues 1-190; cloned by PCR from genomic DNA; Expressed from a pET49b variant with an N-terminal hexahistidine tag and a thrombin site; Residues 1-189 are seen in the structure; also called cjRecR; source: E. coli BL21 (DE3), purified (Ni-NTA, thrombin cleavage, Mono Q anion exchange); not shown: His6, N-terminal, cleaved
[1]
  stoichiometry N: 2
[2]
  stoichiometry N: 4

## TTATAGGCATATAGGAGTAATTTTCTTGGGCTATGCAGTA (ssDNA) [40-mer ssDNA]
cjRecR
  Kd: 6.8 µM
